Results: US20250019737A1 (TECHNOLOGY INNOVATION MOMENTUM FUND ISRAEL LIMITED …, published 2025)

Target: T1, Ubiquitin R42E, R72E, untagged free mono-Ub (Homo sapiens (Human), UniProt P0CG47 1-76)
T1 construct: also called Ub R42E, R72E
Assay: SPR, immobilized His6-MBP-ENTH on Ni2+ chip, Ub mutant as analyte, single-site model

fold lower affinity than the wild-type complex: ~2.6 fold
B1: His6-MBP-ENTH, ENTH domain of yeast Ent1(1-152) (other, yeast (Saccharomyces cerevisiae), UniProt Q12518 1-152, looked up, not shown: small tags and cut ends; large carriers)
chain: MSKQFVRSAKNLVKGYSSTQVLVRNATSNDNHQVSKDSLIELAEKSYDSADFFEIMDMLDKRLNDKGKYWRHIAKALTVIDYLIRFGSENCVLWCRENLYIIKTLKEFRHEDDEGIDQGQIVRVKAKELTALLSDDERLNEERNMNIKGRNR
notes: range 1-152; also called yeast ENTH
